Paper PMC7861197 (Molecular pharmaceutics, 2020)
One block for each compound: values may come before it.

Tests used:
[1] = system: wild-type RAW 264.7 cells; experiment: Flow cytometry of PLS-488 uptake, wild-type RAW 264.7 cells; assay type: cell-based, murine; settings: wild-type RAW 264.7, 24 h incubation
[2] = system: SR-A1 deficient RAW 264.7 derivative cell line (Clone 1/2); experiment: Flow cytometry of PLS-488 uptake, SR-A1 deficient Clone 1/2; assay type: cell-based, murine; settings: SR-A1 deficient Clone 1/2, 24 h incubation
[3] = system: wild type Raw 264.7 cells; experiment: Confocal microscopy of PLS-488 uptake, wild type RAW 264.7 cells; assay type: cell-based, murine
[4] = system: SR-A1 knockout Raw 264.7 cells (clone 1/2); experiment: Confocal microscopy of PLS-488 uptake, SR-A1 deficient RAW cells; assay type: cell-based, murine; settings: SR-A1 deficient RAW cell line
[5] = Lymph node distribution of PLS-488 in mice, anti-Alexa488 immunohistochemistry; assay type: in vivo, C57BL/6 mice; settings: 6 h and 24 h
[6] = target: T1, scavenger receptor A (SR-A) (Mus musculus, UniProt P30204); experiment: Scavenger receptor A competitive inhibition studies in RAW 264.7 cells; assay type: cell-based, murine; settings: RAW 264.7, 3 h co-treatment, 200 μg/mL poly I or poly C, PLS-488 4.22 ng/mL to […] (Figure 2A)
T1 sequence (P30204 1-458): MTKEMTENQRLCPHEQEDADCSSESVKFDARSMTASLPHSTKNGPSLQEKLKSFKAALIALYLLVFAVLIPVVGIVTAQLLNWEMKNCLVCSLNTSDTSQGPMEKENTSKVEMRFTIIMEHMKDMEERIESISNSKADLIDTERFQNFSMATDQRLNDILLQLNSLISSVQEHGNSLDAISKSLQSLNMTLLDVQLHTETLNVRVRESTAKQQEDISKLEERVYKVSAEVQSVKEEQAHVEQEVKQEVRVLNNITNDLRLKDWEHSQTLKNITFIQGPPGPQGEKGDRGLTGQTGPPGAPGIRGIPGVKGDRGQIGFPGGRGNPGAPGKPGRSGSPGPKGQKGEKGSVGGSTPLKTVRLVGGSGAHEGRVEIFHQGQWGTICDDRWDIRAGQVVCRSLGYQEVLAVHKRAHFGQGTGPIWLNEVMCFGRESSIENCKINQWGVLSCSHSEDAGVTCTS

[7] = FTC concentrations in rat tissues by LC-MS/MS; assay type: in vivo, Sprague Dawley rats; settings: for concentration at 4 h: male, Sprague Dawley, rat, iv
[8] = In vitro drug release in human plasma with or without esterase inhibitor PMSF; settings: PMSF-treated vs untreated human plasma
[9] = Plasma pharmacokinetics of PLS-FTC vs FTC in rats
human PBMCs = settings: 24 h incubation at 10 ug/mL FTC, normalized to soluble protein
[10] = rat axillary lymph nodes, 4 h post dose
[11] = rats, 4 h post i.v. injection, 10 mg FTC equivalents/kg, mean ± SD, n=3
[12] = FTC in plasma, rats, i.v. bolus 10 mg FTC equivalents/kg, mean ± SD (n=8)
[13] = rats, i.v. bolus 10 mg FTC equivalents/kg
[14] = male, Sprague Dawley, rat, plasma, iv, 10 mg/kg

Compound: AlexaFluor488-labelled poly(L-lysine succinylated) [PLS-488]
uptake of PLS-488 by flow cytometry [1]: uniform uptake
uptake of PLS-488 by flow cytometry [2]: no uptake
PLS-488 uptake by confocal microscopy ([3]; wild type Raw 264.7, 1 μg/mL, 0.5 h): uptake was observed at the earliest 0.5 h time point
PLS-488 fluorescence signal after 24 h treatment ([3]; wild type vs SR-A1 deficient Raw cells, 1 μg/mL, 24 h): markedly greater in the wild type Raw 264.7 cells than the SR-A1 deficient Raw cells
PLS-488 uptake by confocal microscopy [4]: greatly reduced PLS-488 uptake
accumulation in lymph nodes (IHC) ([5]; intradermal injection into foot pads): robust accumulation of PLS-488 in regions of the draining (popliteal) and peripheral (axillary and inguinal) lymph nodes
accumulation in lymph nodes (IHC) ([5]; intravenous tail vein injection): early accumulation of PLS-488 into myeloid-rich regions of the deep mesenteric lymph nodes by 6 h, with later accumulation in peripheral lymph nodes

inhibition of PLS-488 binding to macrophages [6]: not with the control polymer poly C
Compound: poly(cytidylic acid) potassium salt [poly C]

Compound: poly(L-lysine succinylated) FTC prodrug [PLS-FTC]
FTC concentration in axillary lymph node [7, 11]: 811 ± 65 ng/g
FTC concentration in inguinal lymph node [7, 11]: 587 ± 56 ng/g
FTC concentration in liver [7, 11]: 2,257 ± 143 ng/g
FTC concentration in mesenteric lymph node [7, 11]: 850 ± 540 ng/g
FTC concentration in popliteal lymph node [7, 11]: 864 ± 330 ng/g
FTC concentration in spleen [7, 11]: 1,788 ± 164 ng/g
fold higher concentrations in lymphatic tissues compared to free FTC control ([7]; rats, 4 h post injection, lymph nodes, liver, spleen): 7 to 19 fold
FTC concentration in LN inguinal at 24 h ([7]; rats, 24 h after i.v. bolus): below limit of quantitation
prolongation of release half-life in PMSF-treated plasma [8]: ~ 2 fold
AUCall [9, 12]: 11100 ± 3281 ^* h*ng/mL
C0 [9, 12]: 4901 ± 3621 ng/mL
Cl [9, 12]: 17.55 ± 10.3 mL/min/kg
Cmax [9, 12]: 3839 ± 1734 ng/mL
MRT [9, 12]: 3.64 ± 0.47 h
T1/2 [9, 12]: 6.99 ± 2.62 h
Vss [9, 12]: 3.816 ± 2.254 L/kg
fold higher area under the concentration-time curve vs FTC control [9, 13]: 2 fold
fold higher mean residence time vs FTC control [9, 13]: 2 fold
fold lower concentration time zero vs FTC control [9, 13]: 2 fold
fold lower half-life vs FTC control [9, 13]: 2 fold

Compound: Nc1nc(=O)n([C@@H]2CS[C@H](CO)O2)cc1F [FTC, Emtricitabine, reference compound]
concentration at 4 h ([7]; axillary lymph node, 10 mg FTC equivalents/kg): 109 ± 37 ng/g
concentration at 4 h ([7]; inguinal lymph node, 10 mg FTC equivalents/kg): 87 ± 51 ng/g
concentration at 4 h ([7]; liver, 10 mg FTC equivalents/kg): 119 ± 51 ng/g
concentration at 4 h ([7]; popliteal lymph node, 10 mg FTC equivalents/kg): 105 ± 64 ng/g
concentration at 4 h ([7]; spleen, 10 mg FTC equivalents/kg): 106 ± 44 ng/g
FTC concentration in PBMCs (human PBMCs): 182 ± 18 ng/mg protein
FTC signal abundance (IR-MALDESI MSI) [10]: 18.5 ± 16.6 arbitrary units
frequency of detection [10]: 2.9 ± 2.8 % of sampling locations with measurable drug
AUC [9, 14]: 6400 ± 1010 ng·h/mL
C0 [9, 14]: 10600 ± 2950 ng/mL
Cmax [9, 14]: 5850 ± 853 ng/mL
MRT [9, 14]: 1.8 ± 0.32 h
Vd [9, 14]: 2.94 ± 1.09 L/kg
clearance [9, 14]: 26.7 mL/min/kg
half-life [9, 14]: 14.1 ± 5.17 h
